Results: the RNAGym collection of RNA variant scans (doi:10.1093/molbev/msab373)

B1: Azoarcus group I ribozyme (parent)
chain: GUGCCUUGCGCCGGGAAACCACGCAAGGGAUGGUGUCAAAUUCGGCGAAACCUAAGCGCCCGCCCGGGCGUAUGGCAACGCCGAGCCAAGCUUCGGCGCCUGCGCCGAUGAAGGUGUAGAGACUAGACGGCACCCACCUAAGGCAAACGCUAUGGUGAAGGCAUAGUCCAGGGAGUGGCGAAAGUCACACAAACCGG

Variants of: B1
Test: reverse-splicing fitness (ratio to wild type); higher = more active; in vitro selection; Mg2+ level not given
Method in brief: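 An in vitro group I ribozyme library with randomized positions was T7-transcribed and gel-purified. In triplicate, 10 pmol RNA in EPPS pH 7.5 was reacted with 50 pmoles of a 30-nt RNA substrate for 1 h at 37 °C across several added MgCl2 levels (1–48 mM), then stopped with EDTA. Products were reverse transcribed from a substrate-complementary primer, PCR-amplified and sequenced (HiSeq 4000). Fitness is a variant's read proportion after selection over that before, normalised to wild type.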
For A111U A145C C169G U176G, the reverse-splicing fitness was 0.00585. Work on A111U A145C C169G U176C yielded a reverse-splicing fitness of 0.0232. With A111U A145C C169G U176A the reverse-splicing fitness was 0.0286. A111U A120U C150A C169A U176G showed a reverse-splicing fitness of 0.00251. In the case of A111U A120U C150A C169A U176A, the reverse-splicing fitness is reported as 0.00475. In the case of A111U A120U C150A C169A U176C, the reverse-splicing fitness is reported as 0.00348. In the case of A111U A145C C150G C169A U176C, the reverse-splicing fitness is reported as 0.00643. A111U A145C C150G C169A U176G showed a reverse-splicing fitness of 0.00612. Variant A111U A145C C150G C169A U176A has a reverse-splicing fitness of 0.0076. Work on A111U A120U A145C C169G U176A yielded a reverse-splicing fitness of 0.00441. For A111U A120U A145C C169G U176C, the reverse-splicing fitness was 0.00515. A111U A120U A145C C169G U176G gave a reverse-splicing fitness of 0.00199. In the case of A111U A145G C150A C169G U176G, the reverse-splicing fitness is reported as 0.00603. Work on A111U A145G C150A C169G U176C yielded a reverse-splicing fitness of 0.0292. Work on A111U A145G C150A C169G U176A yielded a reverse-splicing fitness of 0.0163. Variant A111U A120U A145C C150A U176A has a reverse-splicing fitness of 0.012. In the case of A111U A120U A145C C150A U176G, the reverse-splicing fitness is reported as 0.00552. With A111U A120U A145C C150A U176C the reverse-splicing fitness was 0.00836. For A111U A120U A145U C150A C169A, the reverse-splicing fitness was 0.00249. A111U A120U A145U C150A C169U showed a reverse-splicing fitness of 0.00692. For A111U A120U A145U C150A C169G, the reverse-splicing fitness was 0.0047. For A111U A145G C150A C169A U176C, the reverse-splicing fitness was 0.0233. In the case of A111U A145G C150A C169A U176A, the reverse-splicing fitness is reported as 0.0172. Work on A111U A145G C150A C169A U176G yielded a reverse-splicing fitness of 0.0068. Work on A111U A145C U176C yielded a reverse-splicing fitness of 0.706. Work on A111U A145C U176A yielded a reverse-splicing fitness of 0.757. A111U A145C U176G gave a reverse-splicing fitness of 0.329. In the case of A111U A145C C150G U176C, the reverse-splicing fitness is reported as 0.218. A111U A145C C150G U176A gave a reverse-splicing fitness of 0.153. A111U A145C C150G U176G showed a reverse-splicing fitness of 0.0277. A111U A145C C150G C169U U176G gave a reverse-splicing fitness of 0.00557. A111U A145C C150G C169U U176C gave a reverse-splicing fitness of 0.0128. For A111U A145C C150G C169U U176A, the reverse-splicing fitness was 0.00903. For A111U A120U A145U C150G C169G U176A, the reverse-splicing fitness was 0.00294. A111U A120U A145U C150G C169G U176G gave a reverse-splicing fitness of 0.00207. For A111U A120U A145U C150G C169G U176C, the reverse-splicing fitness was 0.00228. A111U A120U A145G C150G U176A gave a reverse-splicing fitness of 0.01. A111U A120U A145G C150G U176C gave a reverse-splicing fitness of 0.0225. Variant A111U A120U A145G C150G U176G has a reverse-splicing fitness of 0.00387. With A111U A145C C150U C169U U176G the reverse-splicing fitness was 0.00571. Work on A111U A145C C150U C169U U176C yielded a reverse-splicing fitness of 0.0152. A111U A145C C150U C169U U176A gave a reverse-splicing fitness of 0.0173. For A111U A120U A145U C150A U176G, the reverse-splicing fitness was 0.00946. A111U A120U A145U C150A U176C gave a reverse-splicing fitness of 0.0269. Variant A111U A120U A145U C150A U176A has a reverse-splicing fitness of 0.0229. Work on A111U A120G U176G yielded a reverse-splicing fitness of 0.00656. A111U A120G U176C showed a reverse-splicing fitness of 0.0497. Variant A111U A145C C150A U176G has a reverse-splicing fitness of 0.0517. With A111U A145C C150A U176C the reverse-splicing fitness was 0.127. A111U A145C C150A U176A showed a reverse-splicing fitness of 0.103. With A111U A120U C169G the reverse-splicing fitness was 0.0555. For A111U A120U C169A, the reverse-splicing fitness was 0.00533. With A111U A120U C169U the reverse-splicing fitness was 0.0747. For A111U A120U A145G C150U C169A U176C, the reverse-splicing fitness was 0.00389. Variant A111U A120U A145G C150U C169A U176G has a reverse-splicing fitness of 0.00237. For A111U A120U A145G C150U C169A U176A, the reverse-splicing fitness was 0.00497. For A111U A145G, the reverse-splicing fitness was 0.921. Work on A111U A145C yielded a reverse-splicing fitness of 0.974. A111U A120U C150A showed a reverse-splicing fitness of 0.0595. For A111U A120U C150G, the reverse-splicing fitness was 0.045. A111U A120U C150U gave a reverse-splicing fitness of 0.374. A111U A120U A145G C150A C169G gave a reverse-splicing fitness of 0.00946. In the case of A111U A120U A145G C150A C169U, the reverse-splicing fitness is reported as 0.012. For A111U A120U A145G C150A C169A, the reverse-splicing fitness was 0.00554. A111U A145C C169U U176A gave a reverse-splicing fitness of 0.0252. A111U A145C C169U U176G gave a reverse-splicing fitness of 0.0061. A111U A145C C169U U176C showed a reverse-splicing fitness of 0.0265. A111U A145C C150A C169U U176G showed a reverse-splicing fitness of 0.00676. Work on A111U A145C C150A C169U U176A yielded a reverse-splicing fitness of 0.0157. With A111U A145C C150A C169U U176C the reverse-splicing fitness was 0.0105. With A111U A120U A145C C150U U176G the reverse-splicing fitness was 0.0208. With A111U A120U A145C C150U U176C the reverse-splicing fitness was 0.0423. Variant A111U A120U A145C C150U U176A has a reverse-splicing fitness of 0.0565. A111U A120U A145C C150A C169A showed a reverse-splicing fitness of 0.00256. With A111U A120U A145C C150A C169G the reverse-splicing fitness was 0.00394. A111U A120U A145C C150A C169U gave a reverse-splicing fitness of 0.00469. With A111U A120U A145G C150A C169G U176C the reverse-splicing fitness was 0.00547. Work on A111U A120U A145G C150A C169G U176G yielded a reverse-splicing fitness of 0.00267. Work on A111U A120U A145G C150A C169G U176A yielded a reverse-splicing fitness of 0.00807. In the case of A111U A145G C150A, the reverse-splicing fitness is reported as 0.516. Work on A111U A145C C169A yielded a reverse-splicing fitness of 0.027. With A111U A145C C169G the reverse-splicing fitness was 0.0589. Variant A111U A145C C169U has a reverse-splicing fitness of 0.108.
